Patent US10131920B2, “Nucleic acid molecules” (MEDIMMUNE LIMITED, priority 2013, dated 2018)

Tested on: GFPY40 reporter (GFP containing an amber codon) in HEK293 cells stably expressing pylRS
Test: Amber suppression-dependent GFP expression (GFPY40 reporter), transient transfection, flow cytometry
Format: cell-based
Conditions: for capacity to support amber suppression relative to H1 WT tRNA (FIG. 4): all tRNA variants under control of the H1 promoter, 1 ug construct + 1 ug GFPY40, lys azide 2 mM, 18 hours; for GFP MFI, FIG. 8: 1 ug PCR product of each construct, lys azide nnAA
Protocol: To assess the function of the tRNA variants, an in vitro assay was established where cells are transiently transfected with a tRNA construct and a reporter construct encoding GFP containing an amber codon interrupting its reading frame (GFPY40). HEK293 cells stably expressing pylRS were transiently transfected with various tRNA constructs (1 ug) and the GFPY40 reporter (1 ug). In the absence of elements that support amber suppression, a truncated GFP protein is generated and the cell is not fluorescent. However, the introduction of a functional tRNA and the presence of a nnAA that supports amber suppression allows for the production of full length GFP resulting in fluorescent cells. The level of GFP expression reflects the efficiency of amber suppression and is quantified by flow cytometry. tRNA genes encoding wild type tRNApyl (WT tRNA), or containing mutations in the B-box (B tRNA—SEQ ID No 9), in both the A and B box (A2B tRNA—SEQ ID No 10), or in the A box (A1 tRNA-SEQ ID No 7; or A2 tRNA SEQ ID No 11), all under control of the H1 promoter were generated by site directed mutagenesis and assayed. The H1 promoter ensured that the variants were expressed and allowed us to examine the functional effects of the mutations introduced into the tRNA genes. In addition a sample transfected with GFPY40 alone was generated to establish background GFP levels. The transfected cells were grown in presence of the aminoacid analogue lys azide (2 mM) and incubated for 18 hours. GFP fluorescence was then assayed by flow cytometry and mean fluorescence intensity determined for each sample. Data were analysed with FCS Express and the mean fluorescence intensity of each sample determined using markers that constrain the data set to cells showing fluorescence above negative controls.
To begin to assess whether the tRNA mutations can support expression of the tRNA we assayed tRNA constructs encoding the wild type tRNA in the absence of the H1 promoter. Constructs encoding wild type tRNApyl (WT tRNA) or containing mutations in the B-box (B tRNA—SEQ ID No 9) or in both the A and B box (A2B; A2B tRNA—SEQ ID No 10) were assayed using our in vitro amber suppression assay described above. WT tRNA under control of the H1 promoter (H1-tRNA) was used as a positive control, and in addition one sample was transfected only with the GFPY40 reporter to illustrate background amber suppression in the absence of tRNA. The transfected cells were exposed to 2 mM lys-azide nnAA and cells incubated for three days. GFP expression was examined by flow cytometry and mean fluorescence intensity determined.
Two copies of the WT, B, or A2B tRNA were cloned in tandem to generate a single vector containing two copies of WT, B, or A2B tRNA. To assess the effect of increased gene doses by these constructs, cells expressing WTpylRS were transiently transfected with the tRNA constructs and the GFPY40 reporter construct and GFP expression assayed after two days.
The activity of each construct was assessed by transient transfection into cells stably expressing WT pylRS with the GFPY40 reporter as described above. For this experiment, 1 ug of a PCR product encoding each of the indicated constructs was used. In each case, cells were exposed to the lys azide nnAA for three days and GFP levels assayed by flow cytometry. Mean fluorescence intensities were determined for each sample and plotted (FIG. 8).

[1] = 2 mM lys-azide nnAA, three days

Row | Molecule | capacity to support amber suppression relative to H1 WT tRNA (FIG. 4) | GFP MFI, FIG. 8 (three days) | other results
1 | A2B tRNA: tRNApyl Methanosarcina mazei with A10G, T14A, A52C mutations (nucleic acid, expressed or natural sequence, tRNApyl Methanosarcina mazei with A10G, T14A, A52C mutations) DNA: GGAAACCTGGTCAAGTAGATCGAATGGACTCTAAATCCGTTCAGCCGGGTTCGATTCCCGGGGTTTCCG | support amber suppression, albeit at a lower level than the WT tRNA |  | GFP mean fluorescence intensity (MFI), FIG. 5 [1]: 242,747.9; fold higher expression of GFP than the wt tRNA construct (FIG. 5) [1]: 2.5 fold; GFP MFI, single copy tRNA, FIG. 7 (cells expressing WTpylRS, after two days, single copy): 61,950; GFP MFI, tandem copies of tRNA, FIG. 7 (cells expressing WTpylRS, after two days, single vector containing two copies in tandem): 96,158
2 | H1-A1 tRNA: tRNA-A1 (A10G) under control of the H1 promoter (nucleic acid, Synthetic sequence H1 tRNA-A1 construct, tRNA-A1 (A10G) under control of the H1 promoter) DNA: AATATTTGCATGTCGCTATGTGTTCTGGGAAATCACCATAAACGTGAAATCCCTATCAGTGATAGAGACTTATAAGTTCCCTATCAGTGATAGAGACACCAGGAAACCTGGTCATGTAGATCGAATGGACTCTAAATCCGTTCAGCCGGGTTAGATTCCCGGGGTTTCCGGACAAGTGCGGTTTTTTT | does not affect the activity of the tRNA |  | 
3 | H1 A2 tRNA: tRNA-A2 (A10G, T14A) under control of the H1 promoter (nucleic acid, Synthetic sequence H1 tRNA-A2 construct, tRNA-A2 (A10G, T14A) under control of the H1 promoter) DNA: AATATTTGCATGTCGCTATGTGTTCTGGGAAATCACCATAAACGTGAAATCCCTATCAGTGATAGAGACTTATAAGTTCCCTATCAGTGATAGAGACACCAGGAAACCTGGTCAAGTAGATCGAATGGACTCTAAATCCGTTCAGCCGGGTTAGATTCCCGGGGTTTCCGGACAAGTGCGGTTTTTTT | does not affect the activity of the tRNA |  | 
4 | Vault WT tRNA: WT tRNApyl downstream of the Vault promoter 5′ region (nucleic acid, Synthetic sequence Vault tRNA-WT construct, WT tRNApyl downstream of the Vault promoter 5′ region) DNA: TGGTCGCTGAGTCATGCTGAAGCACTCTCTTTTTGACTCACTCTTTGTGACGTAGGTCTTTCTCACCAGTCAATAAAATATAATCCGAAAGCAACCTCCCACCAGGAAACCTGATCATGTAGATCGAATGGACTCTAAATCCGTTCAGCCGGGTTAGATTCCCGGGGTTTCCGGACAAGTGCGGTTTTT |  | 102,415 | 
5 | Vault B tRNA: tRNA-B downstream of the Vault promoter 5′ region (nucleic acid, Synthetic sequence Vault tRNA-B construct, tRNA-B downstream of the Vault promoter 5′ region) DNA: TGGTCGCTGAGTCATGCTGAAGCACTCTCTTTTTGACTCACTCTTTGTGACGTAGGTCTTTCTCACCAGTCAATAAAATATAATCCGAAAGCAACCTCCCACCAGGAAACCTGATCATGTAGATCGAATGGACTCTAAATCCGTTCAGCCGGGTTCGATTCCCGGGGTTTCCGGACAAGTGCGGTTTTT |  | 170,838 | GFP MFI, FIG. 9 (1 ug GFPY40 reporter and 1 ug tRNA expression plasmid): 168,298
6 | Vault A2B tRNA: tRNA-A2B downstream of the Vault promoter 5′ region (nucleic acid, Synthetic sequence Vault tRNA-A2B construct, tRNA-A2B downstream of the Vault promoter 5′ region) DNA: TGGTCGCTGAGTCATGCTGAAGCACTCTCTTTTTGACTCACTCTTTGTGACGTAGGTCTTTCTCACCAGTCAATAAAATATAATCCGAAAGCAACCTCCCACCAGGAAACCTGGTCAAGTAGATCGAATGGACTCTAAATCCGTTCAGCCGGGTTCGATTCCCGGGGTTTCCGGACAAGTGCGGTTTTT |  | 154,445 | 
7 | 7SL tRNA A1: tRNA-A1 downstream of the 7SL promoter 5′ region (nucleic acid, Synthetic sequence 7SL tRNA-A1 construct, tRNA-A1 downstream of the 7SL promoter 5′ region) DNA: CCCAGTTGATGACGTCACCATACCACAGCTTCTAGTGCTATTCTGCGCCGGTATCCGACCACCAGGAAACCTGGTCATGTAGATCGAATGGACTCTAAATCCGTTCAGCCGGGTTAGATTCCCGGGGTTTCCGGACAAGTGCGGTTTTT |  | 114,393 | 
8 | 7SL A2B: tRNA-A2B downstream of the 7SL promoter 5′ region (nucleic acid, Synthetic sequence 7SL tRNA-A2B construct, tRNA-A2B downstream of the 7SL promoter 5′ region) DNA: CCCAGTTGATGACGTCACCATACCACAGCTTCTAGTGCTATTCTGCGCCGGTATCCGACCACCAGGAAACCTGGTCAAGTAGATCGAATGGACTCTAAATCCGTTCAGCCGGGTTCGATTCCCGGGGTTTCCGGACAAGTGCGGTTTTT |  | 245,120 | 
9 | 7SL AB: tRNA-AB downstream of the 7SL promoter 5′ region (nucleic acid, Synthetic sequence 7SL tRNA-AB construct, tRNA-AB downstream of the 7SL promoter 5′ region) DNA: CCCAGTTGATGACGTCACCATACCACAGCTTCTAGTGCTATTCTGCGCCGGTATCCGACCACCAGGAAACCTGGTCATGTAGATCGAATGGACTCTAAATCCGTTCAGCCGGGTTCGATTCCCGGGGTTTCCGGACAAGTGCGGTTTTT |  | 210,380 | 
